Our source for the syn/allo ratio values is patent US20160340439A1.

Assay in all cases: IP + mass spec of B16 melanoma proteins; ratio to alloIgG
Assay [1] deals with Disco-interacting protein 2 homolog B (mouse) (UniProt Q3UH60).
The target of assay [2] is Translocation protein SEC62 (mouse) (UniProt Q8BU14).
In assay [3] the target is Fibrous sheath-interacting protein 2 (mouse) (UniProt A2ARZ3).
In assay [4] the target is Vacuolar protein sorting-associated protein 35 (mouse) (UniProt Q9EQH3).
In assay [5] the target is Trifunctional enzyme subunit beta, mitochondrial (mouse) (UniProt Q99JY0).
Sequence of UniProt Q99JY0 (Q99JY0 35-475 limits assumed): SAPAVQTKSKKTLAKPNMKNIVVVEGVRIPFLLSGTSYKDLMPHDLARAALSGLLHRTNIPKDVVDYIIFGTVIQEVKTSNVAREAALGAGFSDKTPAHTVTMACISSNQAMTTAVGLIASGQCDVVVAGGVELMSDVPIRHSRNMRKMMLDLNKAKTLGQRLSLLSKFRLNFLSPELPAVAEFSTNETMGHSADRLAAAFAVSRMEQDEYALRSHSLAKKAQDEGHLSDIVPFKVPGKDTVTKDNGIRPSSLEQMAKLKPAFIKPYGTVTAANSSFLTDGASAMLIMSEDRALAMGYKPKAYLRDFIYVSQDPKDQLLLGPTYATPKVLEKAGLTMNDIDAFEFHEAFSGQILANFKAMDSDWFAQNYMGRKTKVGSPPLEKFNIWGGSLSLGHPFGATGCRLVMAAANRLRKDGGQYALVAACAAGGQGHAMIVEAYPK
The target in a further assay is Nicalin (mouse) (UniProt Q8VCM8).
Sequence of UniProt Q8VCM8 (Q8VCM8 43-563 limits assumed): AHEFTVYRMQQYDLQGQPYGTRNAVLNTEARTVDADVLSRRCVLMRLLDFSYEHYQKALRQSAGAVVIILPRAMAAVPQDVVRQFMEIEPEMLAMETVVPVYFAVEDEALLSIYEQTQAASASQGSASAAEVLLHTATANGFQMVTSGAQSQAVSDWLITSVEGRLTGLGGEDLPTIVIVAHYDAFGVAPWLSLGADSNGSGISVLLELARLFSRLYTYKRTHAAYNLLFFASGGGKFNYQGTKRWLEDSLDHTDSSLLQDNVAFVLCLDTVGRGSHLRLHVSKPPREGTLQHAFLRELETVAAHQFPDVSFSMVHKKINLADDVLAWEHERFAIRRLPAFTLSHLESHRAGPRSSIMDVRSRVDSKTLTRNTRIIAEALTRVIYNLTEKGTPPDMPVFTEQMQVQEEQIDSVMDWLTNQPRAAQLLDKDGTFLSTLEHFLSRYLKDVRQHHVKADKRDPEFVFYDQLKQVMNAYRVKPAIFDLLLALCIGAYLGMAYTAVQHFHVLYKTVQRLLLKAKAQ
Assay [6] has as its target Arginine and glutamate-rich protein 1 (mouse) (UniProt Q3UL36).
Sequence of UniProt Q3UL36 (Q3UL36 whole entry): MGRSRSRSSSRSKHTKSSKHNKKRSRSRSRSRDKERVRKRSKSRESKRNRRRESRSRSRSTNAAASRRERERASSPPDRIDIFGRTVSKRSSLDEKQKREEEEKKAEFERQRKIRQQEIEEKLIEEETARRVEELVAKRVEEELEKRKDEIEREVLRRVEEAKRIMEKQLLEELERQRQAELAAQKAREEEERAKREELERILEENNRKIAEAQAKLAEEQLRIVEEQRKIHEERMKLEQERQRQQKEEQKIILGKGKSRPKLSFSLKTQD
Assay [7] has as its target Stromal cell-derived factor 2-like protein 1 (mouse) (UniProt Q9ESP1).
Sequence of UniProt Q9ESP1 (Q9ESP1 29-221 limits assumed): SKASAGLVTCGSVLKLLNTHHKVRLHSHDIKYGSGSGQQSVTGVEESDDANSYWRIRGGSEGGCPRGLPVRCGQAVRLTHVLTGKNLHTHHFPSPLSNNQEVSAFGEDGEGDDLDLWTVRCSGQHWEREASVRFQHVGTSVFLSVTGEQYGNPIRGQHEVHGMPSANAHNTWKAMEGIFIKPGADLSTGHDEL
Assay [8] has as its target CDGSH iron-sulfur domain-containing protein 1 (mouse) (UniProt Q91WS0).
Sequence of UniProt Q91WS0 (Q91WS0 whole entry, the tested form may be a part): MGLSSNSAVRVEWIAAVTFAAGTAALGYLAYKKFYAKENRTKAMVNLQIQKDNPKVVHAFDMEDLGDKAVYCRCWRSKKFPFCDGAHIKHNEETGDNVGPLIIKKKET
In assay [9] the target is Mitochondrial inner membrane protein (mouse) (UniProt Q8CAQ8).
Sequence of UniProt Q8CAQ8 (Q8CAQ8 34-757 limits assumed): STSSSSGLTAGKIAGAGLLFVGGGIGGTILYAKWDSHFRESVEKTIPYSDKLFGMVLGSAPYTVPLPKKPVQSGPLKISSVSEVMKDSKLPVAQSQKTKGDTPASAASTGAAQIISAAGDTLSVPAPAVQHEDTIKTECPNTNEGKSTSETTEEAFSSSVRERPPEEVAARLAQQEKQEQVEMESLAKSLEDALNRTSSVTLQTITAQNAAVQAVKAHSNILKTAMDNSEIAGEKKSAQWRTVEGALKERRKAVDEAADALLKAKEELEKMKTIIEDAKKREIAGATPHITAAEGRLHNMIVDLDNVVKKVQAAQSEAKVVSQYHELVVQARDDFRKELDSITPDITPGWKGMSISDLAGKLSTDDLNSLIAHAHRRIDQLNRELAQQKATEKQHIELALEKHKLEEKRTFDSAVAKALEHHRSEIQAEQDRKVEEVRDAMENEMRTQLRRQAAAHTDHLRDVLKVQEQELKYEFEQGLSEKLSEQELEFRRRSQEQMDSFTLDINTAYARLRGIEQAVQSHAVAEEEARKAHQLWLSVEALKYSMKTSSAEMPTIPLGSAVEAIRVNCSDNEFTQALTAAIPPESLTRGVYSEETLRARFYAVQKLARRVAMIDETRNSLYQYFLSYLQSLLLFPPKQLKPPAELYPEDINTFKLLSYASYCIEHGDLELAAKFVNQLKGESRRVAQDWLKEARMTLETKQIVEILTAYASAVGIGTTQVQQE
Assay [10] concerns the target Angiomotin-like protein 2 (mouse) (UniProt Q8K371).
Sequence of UniProt Q8K371 (Q8K371 whole entry): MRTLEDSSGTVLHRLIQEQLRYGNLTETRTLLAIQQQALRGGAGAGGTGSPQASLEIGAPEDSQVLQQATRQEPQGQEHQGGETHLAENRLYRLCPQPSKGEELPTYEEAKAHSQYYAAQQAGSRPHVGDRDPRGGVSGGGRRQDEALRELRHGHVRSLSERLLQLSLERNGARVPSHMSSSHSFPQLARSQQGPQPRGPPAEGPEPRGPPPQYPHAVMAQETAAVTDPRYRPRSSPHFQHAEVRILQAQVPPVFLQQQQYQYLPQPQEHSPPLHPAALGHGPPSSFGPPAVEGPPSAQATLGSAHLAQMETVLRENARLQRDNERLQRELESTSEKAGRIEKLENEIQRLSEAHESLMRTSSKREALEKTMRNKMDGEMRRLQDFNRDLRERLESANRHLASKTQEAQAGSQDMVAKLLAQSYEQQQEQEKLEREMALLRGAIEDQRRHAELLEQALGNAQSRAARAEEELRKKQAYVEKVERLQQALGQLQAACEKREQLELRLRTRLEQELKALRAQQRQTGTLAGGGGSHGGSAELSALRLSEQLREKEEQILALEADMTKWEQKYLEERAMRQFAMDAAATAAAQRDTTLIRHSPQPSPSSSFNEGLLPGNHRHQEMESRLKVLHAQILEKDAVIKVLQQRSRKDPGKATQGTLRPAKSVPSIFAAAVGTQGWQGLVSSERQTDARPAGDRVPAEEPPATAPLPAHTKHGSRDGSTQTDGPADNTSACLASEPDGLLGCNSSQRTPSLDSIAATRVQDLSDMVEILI

Sequence of UniProt Q3UH60 (Q3UH60 whole entry): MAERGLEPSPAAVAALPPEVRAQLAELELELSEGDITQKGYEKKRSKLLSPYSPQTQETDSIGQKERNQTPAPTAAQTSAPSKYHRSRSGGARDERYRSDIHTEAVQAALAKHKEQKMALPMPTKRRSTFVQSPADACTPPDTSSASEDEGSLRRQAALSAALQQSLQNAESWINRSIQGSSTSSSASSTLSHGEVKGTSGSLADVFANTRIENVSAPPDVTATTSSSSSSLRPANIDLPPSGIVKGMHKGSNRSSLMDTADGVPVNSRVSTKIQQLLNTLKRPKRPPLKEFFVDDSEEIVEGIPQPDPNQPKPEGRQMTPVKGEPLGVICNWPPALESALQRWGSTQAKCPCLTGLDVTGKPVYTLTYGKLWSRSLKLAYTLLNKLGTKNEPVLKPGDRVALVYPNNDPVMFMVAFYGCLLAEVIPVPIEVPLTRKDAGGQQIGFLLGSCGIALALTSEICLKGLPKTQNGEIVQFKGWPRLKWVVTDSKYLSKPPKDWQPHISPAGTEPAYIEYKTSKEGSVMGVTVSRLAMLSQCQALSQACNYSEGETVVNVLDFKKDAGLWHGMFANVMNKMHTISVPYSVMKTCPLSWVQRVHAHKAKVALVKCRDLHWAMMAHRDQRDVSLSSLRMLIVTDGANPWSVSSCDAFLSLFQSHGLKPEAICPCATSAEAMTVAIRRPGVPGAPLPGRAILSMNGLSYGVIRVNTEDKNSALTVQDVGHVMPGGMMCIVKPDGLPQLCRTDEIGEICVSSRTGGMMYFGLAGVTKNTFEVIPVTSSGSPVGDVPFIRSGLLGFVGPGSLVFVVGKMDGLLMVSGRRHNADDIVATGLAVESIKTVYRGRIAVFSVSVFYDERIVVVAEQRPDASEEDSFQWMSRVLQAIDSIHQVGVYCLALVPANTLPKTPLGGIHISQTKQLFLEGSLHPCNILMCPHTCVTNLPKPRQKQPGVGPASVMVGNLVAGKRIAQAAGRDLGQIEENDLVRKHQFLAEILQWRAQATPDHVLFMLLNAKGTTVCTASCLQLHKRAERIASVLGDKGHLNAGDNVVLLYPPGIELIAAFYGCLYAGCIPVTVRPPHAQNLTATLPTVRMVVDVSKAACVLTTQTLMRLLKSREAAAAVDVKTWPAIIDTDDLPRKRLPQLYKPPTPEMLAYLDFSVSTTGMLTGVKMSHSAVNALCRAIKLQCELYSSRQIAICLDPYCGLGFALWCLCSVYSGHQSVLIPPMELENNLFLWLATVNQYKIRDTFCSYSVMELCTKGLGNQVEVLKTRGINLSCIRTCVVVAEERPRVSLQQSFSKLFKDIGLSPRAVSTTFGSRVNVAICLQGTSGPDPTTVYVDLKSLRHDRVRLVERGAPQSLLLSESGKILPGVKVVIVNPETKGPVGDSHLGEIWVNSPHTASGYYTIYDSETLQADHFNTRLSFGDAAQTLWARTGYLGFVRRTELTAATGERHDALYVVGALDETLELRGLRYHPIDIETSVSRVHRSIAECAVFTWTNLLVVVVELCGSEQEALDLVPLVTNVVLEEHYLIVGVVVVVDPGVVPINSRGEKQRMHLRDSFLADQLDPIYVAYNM
Sequence of UniProt Q8BU14 (Q8BU14 whole entry): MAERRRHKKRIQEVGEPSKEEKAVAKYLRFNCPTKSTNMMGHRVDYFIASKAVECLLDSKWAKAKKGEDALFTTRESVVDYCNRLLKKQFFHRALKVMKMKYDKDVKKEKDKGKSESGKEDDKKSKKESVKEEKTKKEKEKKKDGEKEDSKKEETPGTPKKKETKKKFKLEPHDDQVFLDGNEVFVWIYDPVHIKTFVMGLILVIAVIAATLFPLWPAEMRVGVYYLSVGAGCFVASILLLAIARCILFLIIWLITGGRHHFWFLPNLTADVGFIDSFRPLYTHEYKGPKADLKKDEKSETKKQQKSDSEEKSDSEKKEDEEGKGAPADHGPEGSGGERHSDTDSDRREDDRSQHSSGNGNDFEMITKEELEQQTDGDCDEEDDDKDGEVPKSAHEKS

For “syngeneic IgG (from sera of C57B1/6 mice) (antibody)”, the syn/allo ratio in assay [1] is 4; in assay [2], 4; in [3], 9; in assay [4], 2; in [5] it was 2.6; with Nicalin (mouse), 2. In addition, the syn/allo ratio in assay [6] is 2; in assay [7] it was 3; in assay [8], 2; in [9], 2.99; in assay [10], 6.
